Results on two substances are retold here after patent US20210206847A1.

The target in this test is biotin-labeled soluble FcRn protein (UniProt P55899). Put plainly: SPR; pH 6.0.
Chain of biotin-labeled soluble FcRn protein (P55899 24-297, chain 1 of 2): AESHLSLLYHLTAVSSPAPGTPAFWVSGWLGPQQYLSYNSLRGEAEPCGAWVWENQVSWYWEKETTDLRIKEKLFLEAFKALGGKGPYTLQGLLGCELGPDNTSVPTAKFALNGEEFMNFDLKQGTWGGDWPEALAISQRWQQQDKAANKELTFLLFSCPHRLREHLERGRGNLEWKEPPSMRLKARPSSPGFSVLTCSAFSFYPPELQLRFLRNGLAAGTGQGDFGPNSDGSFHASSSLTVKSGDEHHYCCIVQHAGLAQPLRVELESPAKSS
Chain of biotin-labeled soluble FcRn protein (main, as listed by the source, chain 2 of 2): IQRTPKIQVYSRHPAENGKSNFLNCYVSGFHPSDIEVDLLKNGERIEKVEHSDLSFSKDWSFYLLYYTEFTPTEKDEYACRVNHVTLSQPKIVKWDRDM

As usually defined, the Kd is the concentration at which binding is half-saturated. Lower therefore signals tighter binding. As for 1-B10-9 (from UniProt P0DOX5 233-449), the Kd is 119 nM. That is a sub-micromolar value.
For “novel IgG1 Fc monomer (sFc) (from UniProt P0DOX5 233-449)” the value was 106 nM.
